Measured values: paper PMC8826056, “Different Functions of IbRAP2.4, a Drought-Responsive AP2/ERF Transcription Factor, in Regulating Root Development Between Arabidopsis and Sweetpotato”

Target: GST-IbRAP2.4 (Ipomoea batatas (Sushu 16), UniProt A0A3S6I5T9 1-294)
Experiment: EMSA; dose-dependent, 0.5-4 ug protein; unlabeled probe competes; 200 mM HEPES, 50 mM KCl, 5 mM DTT, 1 mM EDTA, 20 pmol poly dI-dC, 30 uL (so in the source), pH not stated; room temperature 30 min; 8% native PAGE
Conditions: protein: recombinant; tags: GST; label: 32P (T4 PNK, gamma-ATP); blunt (annealed oligonucleotide set)

Sequence of GST-IbRAP2.4 (A0A3S6I5T9 entry or part of it): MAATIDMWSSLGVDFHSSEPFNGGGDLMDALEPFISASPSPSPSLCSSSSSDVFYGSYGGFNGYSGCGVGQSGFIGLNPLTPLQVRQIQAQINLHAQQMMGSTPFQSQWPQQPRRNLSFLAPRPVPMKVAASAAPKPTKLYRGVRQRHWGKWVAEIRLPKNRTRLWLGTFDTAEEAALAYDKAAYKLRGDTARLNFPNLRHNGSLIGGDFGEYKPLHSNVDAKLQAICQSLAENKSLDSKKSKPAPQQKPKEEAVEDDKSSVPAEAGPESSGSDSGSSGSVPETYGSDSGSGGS

Binder	binding result
GCC-box probe (dsDNA) DNA 1: TTCATAAGAGCCGCCACTCATAAGAGCCGCCACT DNA 2: AGTGGCGGCTCTTATGAGTGGCGGCTCTTATGAA	binds
DRE probe (dsDNA) DNA 1: TTGATACTACCGACATGAGTTGATACTACCGACATGAGTT DNA 2: AACTCATGTCGGTAGTATCAACTCATGTCGGTAGTATCAA	binds
